Test results: publication doi:10.1101/2025.08.31.673313 (bioRxiv, 2025)

Target: wild-type KRAS peptide on HLA-C*08:02, on peptide-pulsed cells (Homo sapiens, HLA-C*08:02)
Experiment: flow cytometry on cells

B1: C8K10D5-1 Fab (Fab, V domains shown)
VH: EVQLVESGGGLVQPGRSLRLSCAASGFTFDQYAMHWVRQAPGKGLEWVSGISAYSLSIGYADSVKGRFTISRDNAKNSLYLQMNSLRAEDTAVYYCARGRSEGVYMDGMDIWGSGTLVTVSS
VL: SYVLTQPPSVSVAPGQTARITCGGNNIKYRDVHWYQQKPGQAPVLVVYQDTLRPQGIPERFSGSNSGNMATLTISRVEAGDEADYYCQVWDWDTDHWVFGGGTDLTVL
  binding result: no binding (tested: 50 nM Fab)
